Reference: paper PMC11702068, “NEK8 promotes the progression of gastric cancer by reprogramming asparagine metabolism” (Molecular Medicine, 2025)

B1: Flag-ASNS (wild type) [not stated] / NEK8 (partner in the co-immunoprecipitation with ASNS-WT and ASNS-S349A) [not stated] (parent)
chain 1: MCGIWALFGSDDCLSVQCLSAMKIAHRGPDAFRFENVNGYTNCCFGFHRLAVVDPLFGMQPIRVKKYPYLWLCYNGEIYNHKKMQQHFEFEYQTKVDGEIILHLYDKGGIEQTICMLDGVFAFVLLDTANKKVFLGRDTYGVRPLFKAMTEDGFLAVCSEAKGLVTLKHSATPFLKVEPFLPGHYEVLDLKPNGKVASVEMVKYHHCRDVPLHALYDNVEKLFPGFEIETVKNNLRILFNNAVKKRLMTDRRIGCLLSGGLDSSLVAATLLKQLKEAQVQYPLQTFAIGMEDSPDLLAARKVADHIGSEHYEVLFNSEEGIQALDEVIFSLETYDITTVRASVGMYLISKYIRKNTDSVVIFSGEGSDELTQGYIYFHKAPSPEKAEEESERLLRELYLFDVLRADRTTAAHGLELRVPFLDHRFSSYYLSLPPEMRIPKNGIEKHLLRETFEDSNLIPKEILWRPKEAFSDGITSVKNSWFKILQEYVEHQVDDAMMANAAQKFPFNTPKTKEGYYYRQVFERHYPGRADWLSHYWMPKWINATDPSARTLTHYKSAVKA
chain 2: MEKYERIRVVGRGAFGIVHLCLRKADQKLVIIKQIPVEQMTKEERQAAQNECQVLKLLNHPNVIEYYENFLEDKALMIAMEYAPGGTLAEFIQKRCNSLLEEETILHFFVQILLALHHVHTHLILHRDLKTQNILLDKHRMVVKIGDFGISKILSSKSKAYTVVGTPCYISPELCEGKPYNQKSDIWALGCVLYELASLKRAFEAANLPALVLKIMSGTFAPISDRYSPELRQLVLSLLSLEPAQRPPLSHIMAQPLCIRALLNLHTDVGSVRMRRAEKSVAPSNTGSRTTSVRCRGIPRGPVRPAIPPPLSSVYAWGGGLGTPLRLPMLNTEVVQVAAGRTQKAGVTRSGRLILWEAPPLGAGGGSLLPGAVEQPQPQFISRFLEGQSGVTIKHVACGDFFTACLTDRGIIMTFGSGSNGCLGHGSLTDISQPTIVEALLGYEMVQVACGASHVLALSTERELFAWGRGDSGRLGLGTRESHSCPQQVPMPPGQEAQRVVCGIDSSMILTVPGQALACGSNRFNKLGLDHLSLGEEPVPHQQVEEALSFTLLGSAPLDQEPLLSIDLGTAHSAAVTASGDCYTFGSNQHGQLGTNTRRGSRAPCKVQGLEGIKMAMVACGDAFTVAIGAESEVYSWGKGARGRLGRRDEDAGLPRPVQLDETHPYTVTSVSCCHGNTLLAVRSVTDEPVPP

Variants of: B1
Test: co-immunoprecipitation (IP: ASNS, IB: NEK8), band intensity quantified
Settings: parent: 4.9, read off a plot
chain 1 MCGIWALFGSDDCLSVQCLSAMKIAHRGPDAFRFENVNGYTNCCFGFHRLAVVDPLFGMQPIRVKKYPYLWLCYNGEIYNHKKMQQHFEFEYQTKVDGEIILHLYDKGGIEQTICMLDGVFAFVLLDTANKKVFLGRDTYGVRPLFKAMTEDGFLAVCSEAKGLVTLKHSATPFLKVEPFLPGHYEVLDLKPNGKVASVEMVKYHHCRDVPLHALYDNVEKLFPGFEIETVKNNLRILFNNAVKKRLMTDRRIGCLLSGGLDSSLVAATLLKQLKEAQVQYPLQTFAIGMEDSPDLLAARKVADHIGSEHYEVLFNSEEGIQALDEVIFSLETYDITTVRASVGMYLIAKYIRKNTDSVVIFSGEGSDELTQGYIYFHKAPSPEKAEEESERLLRELYLFDVLRADRTTAAHGLELRVPFLDHRFSSYYLSLPPEMRIPKNGIEKHLLRETFEDSNLIPKEILWRPKEAFSDGITSVKNSWFKILQEYVEHQVDDAMMANAAQKFPFNTPKTKEGYYYRQVFERHYPGRADWLSHYWMPKWINATDPSARTLTHYKSAVKA [chain 1 S349A] showed a response of 3.1.

Variants of: B1
Test: co-immunoprecipitation (IP: Flag-ASNS, IB: NEK8), band intensity quantified
Settings: parent: 5.4, read off a plot
chain 1 MCGIWALFGSDDCLSVQCLSAMKIAHRGPDAFRFENVNGYTNCCFGFHRLAVVDPLFGMQPIRVKKYPYLWLCYNGEIYNHKKMQQHFEFEYQTKVDGEIILHLYDKGGIEQTICMLDGVFAFVLLDTANKKVFLGRDTYGVRPLFKAMTEDGFLAVCSEAKGLVTLKHSATPFLKVEPFLPGHYEVLDLKPNGKVASVEMVKYHHCRDVPLHALYDNVEKLFPGFEIETVKNNLRILFNNAVKKRLMTDRRIGCLLSGGLDSSLVAATLLKQLKEAQVQYPLQTFAIGMEDSPDLLAARKVADHIGSEHYEVLFNSEEGIQALDEVIFSLETYDITTVRASVGMYLIAKYIRKNTDSVVIFSGEGSDELTQGYIYFHKAPSPEKAEEESERLLRELYLFDVLRADRTTAAHGLELRVPFLDHRFSSYYLSLPPEMRIPKNGIEKHLLRETFEDSNLIPKEILWRPKEAFSDGITSVKNSWFKILQEYVEHQVDDAMMANAAQKFPFNTPKTKEGYYYRQVFERHYPGRADWLSHYWMPKWINATDPSARTLTHYKSAVKA [chain 1 S349A] gave a response of 2.7.
